Laboratory results published in patent US20200164029A1 (ACCELERON PHARMA, published 2020).

T1: human BMP-9 (human, UniProt Q9UK05 320-429)
T1 construct: also called hBMP-9
T1 sequence (looked up): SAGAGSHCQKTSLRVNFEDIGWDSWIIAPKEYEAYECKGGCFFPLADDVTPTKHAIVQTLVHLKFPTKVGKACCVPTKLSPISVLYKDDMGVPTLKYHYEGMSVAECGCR

T2: human BMP-10 (human, UniProt O95393 317-424)
T2 construct: also called hBMP-10
T2 sequence (looked up): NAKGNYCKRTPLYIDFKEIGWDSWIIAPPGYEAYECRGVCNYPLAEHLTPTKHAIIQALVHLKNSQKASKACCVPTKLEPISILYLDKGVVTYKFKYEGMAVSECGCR

T3: mENG(27-581)-hFc (R&D Systems, catalog #1320-EN) (murine; human, UniProt Q63961 27-581)
T3 construct: Bought protein; not shown: Fc domain of human IgG1
T3 sequence: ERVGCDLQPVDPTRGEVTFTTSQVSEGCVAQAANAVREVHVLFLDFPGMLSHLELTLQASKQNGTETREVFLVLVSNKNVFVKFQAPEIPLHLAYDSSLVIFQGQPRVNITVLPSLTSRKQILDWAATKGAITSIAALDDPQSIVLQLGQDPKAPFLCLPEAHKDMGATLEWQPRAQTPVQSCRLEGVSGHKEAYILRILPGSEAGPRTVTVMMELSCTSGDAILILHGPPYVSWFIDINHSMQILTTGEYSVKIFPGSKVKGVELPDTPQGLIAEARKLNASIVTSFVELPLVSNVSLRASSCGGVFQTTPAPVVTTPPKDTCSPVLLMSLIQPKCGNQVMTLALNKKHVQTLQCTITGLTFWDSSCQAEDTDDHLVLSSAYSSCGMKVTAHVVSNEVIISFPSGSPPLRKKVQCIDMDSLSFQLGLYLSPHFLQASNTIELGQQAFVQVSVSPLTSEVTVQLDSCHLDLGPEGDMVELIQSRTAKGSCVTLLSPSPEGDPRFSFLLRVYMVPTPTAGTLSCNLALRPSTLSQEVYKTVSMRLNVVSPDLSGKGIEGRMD

B1: hENG(26-586) (R&D Systems, catalog #1097-EN) (receptor)
chain: ETVHCDLQPVGPERGEVTYTTSQVSKGCVAQAPNAILEVHVLFLEFPTGPSQLELTLQASKQNGTWPREVLLVLSVNSSVFLHLQALGIPLHLAYNSSLVTFQEPPGVNTTELPSFPKTQILEWAAERGPITSAAELNDPQSILLRLGQAQGSLSFCMLEASQDMGRTLEWRPRTPALVRGCHLEGVAGHKEAHILRVLPGHSAGPRTVTVKVELSCAPGDLDAVLILQGPPYVSWLIDANHNMQIWTTGEYSFKIFPEKNIRGFKLPDTPQGLLGEARMLNASIVASFVELPLASIVSLHASSCGGRLQTSPAPIQTTPPKDTCSPELLMSLIQTKCADDAMTLVLKKELVAHLKCTITGLTFWDPSCEAEDRGDKFVLRSAYSSCGMQVSASMISNEAVVNILSSSSPQRKKVHCLNMDSLSFQLGLYLSPHFLQASNTIEPGQQSFVQVRVSPSVSEFLLQLDSCHLDLGPEGGTVELIQGRAAKGNCVSLLSPSPEGDPRFSFLLHFYTVPIPKTGTLSCTVALRPKTGSQDQEVHRTVFMRLNIISPDLSGCTSKG
notes: also called soluble human ENG extracellular domain

Columns and labels:
[1] = target: B1; experiment: SPR
human BMP-9 [2] = target: T1, human BMP-9; experiment: SPR, captured hENG-hFc, soluble ligand
human BMP-10 [3] = target: T2, human BMP-10; experiment: SPR, captured hENG-hFc, soluble ligand
human BMP-9 [4] = target: T1, human BMP-9; experiment: SPR competition: hENG(26-586) premixed with BMP-9, binding to captured ALK1-hFc
Excerpt: (§1) BMP-9 and BMP-10 are high-affinity ligands at the type I receptor ALK1 (activin receptor-like kinase 1). […] Similar results were obtained with BMP-10 (FIG. 21).

human BMP-9 [5] = target: T1, human BMP-9; experiment: SPR competition: hENG(26-586) 0-50 nM premixed with 10 nM BMP-9, binding to captured ALK1
Excerpt: as §1

human BMP-10 [6] = target: T2, human BMP-10; experiment: SPR competition: hENG(26-586) 0-50 nM premixed with 10 nM BMP-10, binding to captured ALK1
Excerpt: as §1

[7] = target: T3, mENG(27-581)-hFc (R&D Systems, catalog …); experiment: SPR (Biacore), captured construct, soluble ligand
[8] = target: B1; experiment: SPR (Biacore), immobilized construct, soluble ligand

Binder | binding result [1] | binding result [7] | binding result [8] | other results
ALK3 (receptor, human, UniProt P36894 24-152, looked up, Member of the printed range ALK2-ALK7; also called type I receptor ALK3) QNLDSMLHGTGMKSDSDQKKSENGVTLAPEDTLPFLKCYCSGHCPDDAINNTCITNGHCFAIIEEDDQGETTLASGCMKYEGSDFQCKDSPKAQLRRTIECCRTNLCNQYLQPTLPPVVIGPFFDGSIR | no binding | – | – | –
hENG(258-346)-hFc (Fc fusion, not shown: human IgG1 Fc domain) YVSWLIDANHNMQIWTTGEYSFKIFPEKNIRGFKLPDTPQGLLGEARMLNASIVASFVELPLASIVSLHASSCGGRLQTSPAPIQTTPP | – | – | – | binding result (human BMP-9 [2]): no binding (tested: 100 nM); binding result (human BMP-10 [3]): no binding (tested: 100 nM)
ALK2 (receptor, human, UniProt Q04771 21-123, looked up, Member of the printed range ALK2-ALK7; also called type I receptor ALK2) MEDEKPKVNPKLYMCVCEGLSCGNEDHCEGQQCFSSLSINDGFHVYQKGCFQVYEQGKMTCKTPPSPGQAVECCQGDWCNRNITAQLPTKGKSFPGTQNFHLE | no binding | – | – | –
bone morphogenetic protein receptor II (receptor, human, UniProt Q13873 27-150, looked up, also called BMPRII) SQNQERLCAFKDPYQQDLGIGESRISHENGTILCSKGSTCYGLWEKSKGDINLVKQGCWSHIGDPQECHYEECVVTTTPPSIQNGTYRFCCCSTDLCNVNFTENFPPPDTTPLSPPHSFNRDET | no binding | – | – | –
ALK6 (receptor, human, UniProt O00238 14-126, looked up, Member of the printed range ALK2-ALK7; also called type I receptor ALK6) KKEDGESTAPTPRPKVLRCKCHHHCPEDSVNNICSTDGYCFTMIEEDDSGLPVVTSGCLGLEGSDFQCRDTPIPHQRRSIECCTERNECNKDLHPTLPPLKNRDFVDGPIHHR | no binding | – | – | –
B1 | – | – | – | IC50 (human BMP-9 [4]): < 10 nM; IC50 (human BMP-9 [5]): 9.7 nM; IC50 (human BMP-10 [6]): 6.3 nM
ALK4 (receptor, human, UniProt P36896 24-126, looked up, Member of the printed range ALK2-ALK7; also called type I receptor ALK4) SGPRGVQALLCACTSCLQANYTCETDGACMVSIFNLDGMEHHVRTCIPKVELVPAGKPFYCLSSEDLRNTHCCYTDYCNRIDLRVPSGHLKEPEHPSMWGPVE | no binding | – | – | –
ALK7 (receptor, human, UniProt Q8NER5 21-113, looked up, Member of the printed range ALK2-ALK7; also called type I receptor ALK7) ELSPGLKCVCLLCDSSNFTCQTEGACWASVMLTNGKEQVIKSCVSLPELNAQVFCHSSNNVTKTECCFTDFCNNITLHLPTASPNAPKLGPME | no binding | – | – | –
activin receptor IIB (receptor, human, UniProt Q13705 19-134, looked up, also called ActRIIB) SGRGEAETRECIYYNANWELERTNQSGLERCEGEQDKRLHCYASWRNSSGTIELVKKGCWLDDFNCYDRQECVATEENPQVYFCCCEGNFCNERFTHLPEAGGPEVTYEPPPTAPT | no binding | – | – | –
hENG(360-437)-hFc (Fc fusion, Expressed in COS cells, not purified; not shown: human IgG1 Fc domain) QTKCADDAMTLVLKKELVAHLKCTITGLTFWDPSCEAEDRGDKFVLRSAYSSCGMQVSASMISNEAVVNILSSSSPQR | – | – | – | binding result (human BMP-9 [2]): no binding (tested: 100 nM); binding result (human BMP-10 [3]): no binding (tested: 100 nM)
human BMP-7 (ligand, UniProt P18075 293-431, looked up, also called hBMP-7) STGSKQRSQNRSKTPKNQEALRMANVAENSSSDQRQACKKHELYVSFRDLGWQDWIIAPEGYAAYYCEGECAFPLNSYMNATNHAIVQTLVHFINPETVPKPCCAPTQLNAISVLYFDDSSNVILKKYRNMVVRACGCH | – | no binding (tested: 25 nM) | no binding (tested: 25 nM) | –
human activin A (ligand, UniProt P08476 311-426, looked up, also called hActivin A) GLECDGKVNICCKKQFFVSFKDIGWNDWIIAPSGYHANYCEGECPSHIAGTSGSSLSFHSTVINHYRMRGHSPFANLKSCCVPTKLRPMSMLYYDDGQNIIKKDIQNMIVEECGCS | – | no binding (tested: 25 nM) | no binding (tested: 25 nM) | –
human BMP-2 (ligand, UniProt P12643 283-396, looked up, also called hBMP-2) QAKHKQRKRLKSSCKRHPLYVDFSDVGWNDWIVAPPGYHAFYCHGECPFPLADHLNSTNHAIVQTLVNSVNSKIPKACCVPTELSAISMLYLDENEKVVLKNYQDMVVEGCGCR | – | no binding (tested: 25 nM) | no binding (tested: 25 nM) | –
hBMP-2/7 (ligand, human, read as the BMP-2/BMP-7 heterodimer) chain 1: QAKHKQRKRLKSSCKRHPLYVDFSDVGWNDWIVAPPGYHAFYCHGECPFPLADHLNSTNHAIVQTLVNSVNSKIPKACCVPTELSAISMLYLDENEKVVLKNYQDMVVEGCGCR chain 2: STGSKQRSQNRSKTPKNQEALRMANVAENSSSDQRQACKKHELYVSFRDLGWQDWIIAPEGYAAYYCEGECAFPLNSYMNATNHAIVQTLVHFINPETVPKPCCAPTQLNAISVLYFDDSSNVILKKYRNMVVRACGCH | – | no binding (tested: 25 nM) | no binding (tested: 25 nM) | –
hENG(360-457)-hFc (Fc fusion, Expressed in COS cells, not purified; not shown: human IgG1 Fc domain) QTKCADDAMTLVLKKELVAHLKCTITGLTFWDPSCEAEDRGDKFVLRSAYSSCGMQVSASMISNEAVVNILSSSSPQRKKVHCLNMDSLSFQLGLYLS | – | – | – | binding result (human BMP-9 [2]): no binding (tested: 100 nM); binding result (human BMP-10 [3]): no binding (tested: 100 nM)
TGF-β receptor II (receptor, human, UniProt P37173 24-159, looked up) IPPHVQKSVNNDMIVTDNNGAVKFPQLCKFCDVRFSTCDNQKSCMSNCSITSICEKPQEVCVAVWRKNDENITLETVCHDPKLPYHDFILEDAASPKCIMKEKKKPGETFFMCSCSSDECNDNIIFSEEYNTSNPD | no binding | – | – | –
human TGF-β3 (ligand, UniProt P10600 301-412, looked up, also called hTGF-β3) ALDTNYCFRNLEENCCVRPLYIDFRQDLGWKWVHEPKGYYANFCSGPCPYLRSADTTHSTVLGLYNTLNPEASASPCCVPQDLEPLTILYYVGRTPKVEQLSNMVVKSCKCS | – | no binding (tested: 10 nM) | no binding (tested: 25 nM) | –
ALK5 (receptor, human, UniProt P36897 34-126, looked up, Member of the printed range ALK2-ALK7; also called type I receptor ALK5) LQCFCHLCTKDNFTCVTDGLCFVSVTETTDKVIHNSMCIAEIDLIPRDRPFVCAPSSKTGSVTTTYCCNQDHCNKIELPTTVKSSPGLGPVEL | no binding | – | – | –
human TGF-β2 (ligand, UniProt P61812 303-414, looked up, also called hTGF-β2) ALDAAYCFRNVQDNCCLRPLYIDFKRDLGWKWIHEPKGYNANFCAGACPYLWSSDTQHSRVLSLYNTINPEASASPCCVSQDLEPLTILYYIGKTPKIEQLSNMIVKSCKCS | – | no binding (tested: 10 nM) | no binding (tested: 25 nM) | –
